Measured values from publication PMC7056315 (Science Advances, 2020).
pKi: −log10 of the molar value.

How the values were obtained:
KcsA-Shaker channels [1] = assay: TEVC block of KcsA-Shaker channels expressed in Xenopus oocytes; format: cell-based
KcsA-Shaker–Y82V = assay: TEVC equilibrium inhibition of pore mutant KcsA-Shaker-Y82V in oocytes; format: cell-based; settings: KcsA-Shaker–Y82V vs KcsA-Shaker, 0 mV
KcsA-Shaker channels [2] = settings: TEA block of KcsA-Shaker; cited from earlier work
[3] = biological target: KcsA-Shaker channel (KcsA pore carried in the Shaker channel) (Drosophila | not stated); assay: […]
[4] = biological target: KcsA-Shaker–Y82V (Drosophila | not stated); assay: […]
[5] = biological target: human Kv1.3 channel (human) (UniProt P22001); assay: […]
[6] = biological target: KcsA-Shaker channel (KcsA pore carried in the Shaker channel) (Drosophila | not stated); assay: two-electrode voltage clamp
[7] = biological target: human Kv1.3 channel (human) (UniProt P22001); assay: two-electrode voltage clamp
[8] = biological target: KcsA-Shaker channel (KcsA pore carried in the Shaker channel) (Drosophila | not stated); assay: two-electrode voltage clamp; remark: listed apart in the source

Chain of human Kv1.3 channel (human) (P22001 whole entry): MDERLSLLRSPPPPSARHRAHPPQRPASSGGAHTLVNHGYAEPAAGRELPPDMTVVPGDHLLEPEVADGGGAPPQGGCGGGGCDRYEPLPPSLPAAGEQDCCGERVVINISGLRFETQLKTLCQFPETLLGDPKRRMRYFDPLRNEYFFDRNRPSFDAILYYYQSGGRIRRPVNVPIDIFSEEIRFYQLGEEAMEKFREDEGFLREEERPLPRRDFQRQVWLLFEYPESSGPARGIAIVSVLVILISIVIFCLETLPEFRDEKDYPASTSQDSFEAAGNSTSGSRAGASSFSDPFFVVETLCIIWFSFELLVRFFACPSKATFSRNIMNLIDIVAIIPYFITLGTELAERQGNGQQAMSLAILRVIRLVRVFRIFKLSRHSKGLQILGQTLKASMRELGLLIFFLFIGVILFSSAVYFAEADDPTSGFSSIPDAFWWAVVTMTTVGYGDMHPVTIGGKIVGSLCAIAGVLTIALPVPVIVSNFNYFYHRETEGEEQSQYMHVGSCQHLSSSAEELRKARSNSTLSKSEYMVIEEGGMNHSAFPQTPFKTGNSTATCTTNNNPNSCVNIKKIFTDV

In the case of `CC[N+](CC)(CC)CC` [TEA, tetraethylammonium], the “block of KcsA-Shaker” value (KcsA-Shaker channels [1]; 100 mM TEA) was “complete”, the “τoff (dissociation / unblock)” value (KcsA-Shaker channels [1]; washout of 100 mM TEA) was ~ 1.3 s and the “decrease in equilibrium affinity by mutation of pore residue Tyr^82 to Val” value (KcsA-Shaker–Y82V) was ~ 200 fold. The pKi (KcsA-Shaker channels [2]) was roughly 3.10.
With HmK peptide the pKi [3] was 9.03, the kon [3] was 1.3e+06 M⁻¹ s⁻¹ and the τoff [3] was 714 s. It also gave a τon (5 nM HmK) [3] of 126 s, a fold decrease of equilibrium affinity against KcsA-Shaker [4] of 550 fold and a pKi [5] of 8.51. The kon [6] was 1.2e+06 M⁻¹ s⁻¹ and the τon (30 nM HmK, after TEA wash off) [6] was 27 s.
For Peptide HmK-Lys^22Asn, the pKi [3] was 6.65, the koff [3] was 0.1 s⁻¹ and the kon [3] was 380000 M⁻¹ s⁻¹.
Work on Peptide HmK-Tyr^23Ala yielded a pKi [3] of 6.79, a koff [3] of 0.15 s⁻¹ and a kon [3] of 930000 M⁻¹ s⁻¹.
With ShK-K22N peptide the fold decrease of inhibition against ShK peptide [5] was 24 fold.
With ShK-Lys22Asn peptide the pKi [7] was 8.92.
“T-HmK (membrane-tethered HmK, 46-residue linker) (peptide)” showed a pKi [8] of 8.96, a pKi [6] of 8.96 and an apparent first-order on rate (effective T-HmK 1 nM) [6] of 0.014 s⁻¹. For the same compound, the apparent first-order on rate (effective T-HmK 17 nM) [6] was 0.119 s⁻¹, the koff [6] was 0.0073 s⁻¹ and the kon [6] was 6.6e+06 M⁻¹ s⁻¹. It also gave a percent of current inhibited (0.01 ng of T-HmK cRNA) [6] of 2%, a percent of current inhibited (0.25 ng of T-HmK cRNA) [6] of 76% and a percent of current inhibited (0.35 ng of T-HmK cRNA) [6] of 87%. It also gave a percent of current inhibited (0.5 ng of T-HmK cRNA) [6] greater than 94%, a percent of current inhibited (1 ng of T-HmK cRNA) [6] of 98% and a τon (0.25 ng of T-HmK cRNA) [6] of 33 s. It also gave a pKi [7] of 8.52.
Compound “T-HmK variant Asn^26 to alanine (peptide)” has a fold decrease of affinity against T-HmK [6] of 10 fold.
Compound “T-HmK variant Pro^8 to alanine (peptide)” has a fold decrease of affinity against T-HmK [6] of 10 fold.
Compound T-HmK-Lys22Asn has a koff [5] of 0.93 s⁻¹.
With T-HmK–Arg^24Gln (peptide) the pKi [6] was 9.04, the koff [6] was 0.0063 s⁻¹ and the kon [6] was 6.9e+06 M⁻¹ s⁻¹. For the same compound, the fold change of apparent Ki against T-HmK [7] was 3 fold and the percent of current blocked (0.5 ng of cRNA) [7] was 68%.
T-HmK–Lys^22Asn (peptide) showed a pKi [6] of 7.46, a koff [6] of 0.11 s⁻¹ and a kon [6] of 3.1e+06 M⁻¹ s⁻¹. For the same compound, the percent of current blocked (0.5 ng of cRNA) [6] was less than 38%, the fold change of apparent Ki against T-HmK [7] was 230 fold and the percent of current blocked (0.5 ng of cRNA) [7] was 2%.
Compound T-HmK–Tyr^23Ala (peptide) has a pKi [6] of 7.55, a koff [6] of 0.17 s⁻¹ and a kon [6] of 6.1e+06 M⁻¹ s⁻¹. For the same compound, the percent of current blocked (0.5 ng of cRNA) [6] was less than 38%.
Work on T-ShK (membrane-tethered ShK) (peptide) yielded a pKi [7] of 10.01.
T-ShK–Arg^24Gln (peptide) gave a pKi [7] of 10.12 and a percent of current blocked (0.1 ng of cRNA) [7] of 93%.
Compound T-ShK–Lys^22Asn (peptide) has a pKi [7] of 9.38 and a percent of current blocked (0.1 ng of cRNA) [7] of 70%.
